Source: publication PMC11436757, “BRCA2 stabilises RAD51 and DMC1 nucleoprotein filaments through a conserved interaction mode” (Nature Communications, 2024)

T1: DMC1 ΔN (Homo sapiens, UniProt Q14565)
T1 construct: DMC1 ΔN (83-340) were cloned into pHAT4; His6 (TEV-cleavable) (N, cleaved yes); made in house; host or cells: E. coli BL21 (DE3)
T1 sequence (Q14565 83-340): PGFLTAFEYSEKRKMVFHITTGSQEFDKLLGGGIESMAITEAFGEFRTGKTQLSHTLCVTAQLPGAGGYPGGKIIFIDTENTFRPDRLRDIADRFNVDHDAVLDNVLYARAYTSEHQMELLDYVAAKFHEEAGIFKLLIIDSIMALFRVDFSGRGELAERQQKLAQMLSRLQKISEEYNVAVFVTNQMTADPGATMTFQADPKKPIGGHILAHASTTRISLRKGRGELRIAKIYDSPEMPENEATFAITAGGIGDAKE

T2: DMC1 ΔN loop mutant (Homo sapiens, UniProt Q14565, A148D/A183D/D180S/D182S/G147I/G149R/G153E/H181G/N178G/P152G/V179L/Y151G)
T2 construct: DMC1 ΔN (83-340) were cloned into pHAT4; made in house
T2 sequence (Q14565 83-340 G147I/A148D/G149R/Y151G/P152G/G153E/N178G/V179L/D180S/H181G/D182S/A183D limits assumed): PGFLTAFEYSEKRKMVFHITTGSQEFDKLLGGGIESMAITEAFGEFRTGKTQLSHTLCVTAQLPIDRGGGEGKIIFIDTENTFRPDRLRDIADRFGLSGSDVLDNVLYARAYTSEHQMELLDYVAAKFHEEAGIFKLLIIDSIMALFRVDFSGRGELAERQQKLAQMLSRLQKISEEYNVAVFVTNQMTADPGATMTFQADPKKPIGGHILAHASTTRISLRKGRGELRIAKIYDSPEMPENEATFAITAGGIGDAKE

T3: DMC1;BRCA2 Ex14-Tr (Homo sapiens;Homo sapiens, UniProt Q14565;P51587 1-340;, |)
T3 sequence 1: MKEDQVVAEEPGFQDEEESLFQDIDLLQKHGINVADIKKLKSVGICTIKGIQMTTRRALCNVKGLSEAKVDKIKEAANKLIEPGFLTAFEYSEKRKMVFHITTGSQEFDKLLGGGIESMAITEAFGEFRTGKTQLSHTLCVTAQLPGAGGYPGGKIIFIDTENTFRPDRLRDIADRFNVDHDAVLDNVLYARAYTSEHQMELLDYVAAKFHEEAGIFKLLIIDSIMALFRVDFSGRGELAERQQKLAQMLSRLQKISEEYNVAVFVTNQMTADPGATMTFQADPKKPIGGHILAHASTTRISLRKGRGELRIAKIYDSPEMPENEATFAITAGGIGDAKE
T3 sequence 2: RPTKVFVPPFKTKS

T4: DMC1;BRCA2 Ex14 (Homo sapiens;Homo sapiens, UniProt Q14565;P51587 1-340;2387-2420, |)
T4 sequence 1: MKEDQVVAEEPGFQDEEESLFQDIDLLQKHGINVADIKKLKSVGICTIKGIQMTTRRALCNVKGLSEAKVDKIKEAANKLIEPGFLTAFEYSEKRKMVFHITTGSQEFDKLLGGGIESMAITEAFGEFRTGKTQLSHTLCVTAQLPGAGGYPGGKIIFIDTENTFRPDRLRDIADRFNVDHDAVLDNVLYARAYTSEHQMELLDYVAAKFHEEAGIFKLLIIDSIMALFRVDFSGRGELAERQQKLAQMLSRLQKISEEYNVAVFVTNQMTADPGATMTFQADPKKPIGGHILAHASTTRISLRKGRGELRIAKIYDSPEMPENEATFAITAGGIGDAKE
T4 sequence 2: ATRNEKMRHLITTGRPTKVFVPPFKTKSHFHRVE

T5: DMC1 (Homo sapiens, UniProt Q14565 1-340)
T5 sequence: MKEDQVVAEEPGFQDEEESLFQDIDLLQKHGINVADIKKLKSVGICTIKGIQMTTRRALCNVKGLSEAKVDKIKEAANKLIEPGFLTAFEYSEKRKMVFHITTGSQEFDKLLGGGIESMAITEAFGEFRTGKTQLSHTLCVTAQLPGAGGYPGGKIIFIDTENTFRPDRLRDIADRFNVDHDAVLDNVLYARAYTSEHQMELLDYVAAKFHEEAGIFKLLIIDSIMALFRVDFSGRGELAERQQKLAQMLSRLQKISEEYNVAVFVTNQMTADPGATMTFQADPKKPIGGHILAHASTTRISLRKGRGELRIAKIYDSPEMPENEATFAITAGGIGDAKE

B1: 100-nt random-sequence ssDNA (ssDNA)
DNA: AATTCTCATTTTACTTACCGGACGCTATTAGCAGTGGGTGAGCAAAAACAGGAAGGCAAAATGCCGCAAAAAAGGGAATAAGGGCGACACGGAAATGTTG

Tests used:
DMC1 ΔN = molecular target: T1, DMC1 ΔN; test: Amylose pull-down of DMC1 ΔN with MBP-BRCA2 fusions; format: binding; details: recombinant co-expression with MBP-BRCA2 fusion
Description: (§1) For affinity pulldown experiments, MBP-fusions of BRCA2 fragments (Ex14, amino-acids 2387-2420, Ex14-Tr, amino acids 2401-2414, Ex27, amino acids 3270-3315, BRC4, amino acids 1519-1551) were cloned into pMAT11 vectors[54] and co-expressed with DMC1 ΔN, DMC1 ΔN loop mutant (in which DMC1 amino acids 147-GAGGYPG-153 and 178-NVDHDA-183 were replaced by the cognate sequences of RAD51 148-IDRGGGE-154 and 179-GLSGSD-184), RAD51 ΔN, RAD51 ΔN loop mutant (the reverse switch of DMC1 ΔN loop mutant), and RAD51. MBP-fusions and complexes were purified through amylose affinity chromatography.

DMC1 ΔN loop mutant = molecular target: T2, DMC1 ΔN loop mutant; test: Amylose pull-down of DMC1 ΔN loop mutant with MBP-BRCA2 fusions; format: binding; details: recombinant co-expression with MBP-BRCA2 fusion
Description: as §1

DMC1 ΔN V179E = test: Amylose pull-down of His-DMC1 ΔN V179E with MBP-BRCA2 fusions; format: binding, human; details: lysates mixed; MBP-BRCA2 fusion; 20 mM Tris pH 8.0, 500 mM KCl, 2 mM DTT
Method: (§2) For affinity experiments involving DMC1 ΔN V179E and F85E, MBP-fusions of BRCA2 fragments (Ex14, amino-acids 2387-2420, Ex14-Tr, amino acids 2401-2414, BRC4, amino acids 1519-1551) were cloned into pMAT11 vectors and DMC1 ΔN mutants (V179E or F85E) were cloned into pHAT4 vectors. Lysates of bacterial cultures expressing His6-DMC1 mutants or MBP-BRCA2 constructs were mixed, and complexes were purified through amylose affinity chromatography in 20 mM Tris pH 8.0, 500 mM KCl, 2 mM DTT and eluted using 30 mM D-maltose.

DMC1 ΔN F85E = test: Amylose pull-down of His-DMC1 ΔN F85E (monomeric) with MBP-BRCA2 fusions; format: binding, human; details: lysates mixed; MBP-BRCA2 fusion; 20 mM Tris pH 8.0, 500 mM KCl, 2 mM DTT
Method: as §2

DMC1-ssDNA filaments = test: EMSA, BRC4-mediated disruption of DMC1-ssDNA filaments; format: biochemical, human; details: TEA pH 7.5 + KCl; stoichiometric excess of BRC4 (5-fold, 10-fold elsewhere in the source)
Method: Finally, we tested whether binding of BRCA2 Ex14 protects DMC1-ssDNA nucleoprotein filaments from BRC4-mediated disruption (Fig. 3c). […] Further, whilst the core PhePP interaction site is sufficient to stimulate DMC1-ssDNA nucleoprotein filament formation, surrounding amino-acids that are present within Ex14 (but not Ex14-Tr) are necessary to super-shift filaments and confer protection from BRC4-mediated disruption.
(§3) To form nucleoprotein filaments, DMC1 and RAD51 was incubated with fluorescent 100-base ssDNA (5’-FAM- […]-3’) at the concentrations indicated in the figures for 30 minutes at 4 °C in reaction buffer. For DMC1, reaction buffer is 25 mM TEA (triethanolamine) pH 7.5, 1 mM ATP, 2 mM MgCl2, 0.1 mg/ml BSA, 2 mM DTT, 200 mM KCl. […] Glycerol was added at a final concentration of 3%, and samples were analysed by electrophoresis on a 1% (w/v) (for DMC1) or 0.66% (w/v) (for RAD51) agarose gel in 0.5x TAE pH 8.0 at 20–40 V for ~4 h at 4 °C. DNA was detected by FAM using a Typhoon^TM FLA 9500 (GE Healthcare), with 473 nm laser at excitation wavelength 490 nm and emission wavelength 520 nm, using the LPB filter and a PMT voltage of 500 V. To analyse RAD51 nucleoprotein filaments assembled upon 100-base poly(dT) ssDNA, gels were stained post-run using SYBR^TM Gold Nucleic Acid Gel Stain (Invitrogen) and detected using a Typhoon^TM FLA 9500 (GE Healthcare).

RAD51-ssDNA filaments [1] = test: EMSA, BRC4-mediated disruption of RAD51-ssDNA filaments (random sequence ssDNA); format: biochemical; details: 100-nt random ssDNA; equimolar BRC4
Method: as §3, with “KCl. For RAD51, reaction buffer is 50 mM TEA (triethanolamine), 2 mM ATP, 0.5 mM MgCl2, 2 mM DTT. For assays requiring incomplete nucleoprotein filament assembly, the reaction buffer consisted of 50 mM TAE (tris, acetate, EDTA) pH 7.5, 2 mM ATP, 2 mM MgCl2, 2 mM DTT. In nucleoprotein formation stimulation assays or supershift experiments, BRCA2Ex14 or BRCA2Ex14-AAA were added for a further 30 min at 4 °C.” for “KCl.”

RAD51-ssDNA filaments [2] = test: EMSA, protection of RAD51-ssDNA filaments from BRC4-mediated disruption (random sequence ssDNA); format: biochemical; details: 100-nt random ssDNA; 10-fold excess of Ex27
Method: as §3, with “KCl. For RAD51, reaction buffer is 50 mM TEA (triethanolamine), 2 mM ATP, 0.5 mM MgCl2, 2 mM DTT. For assays requiring incomplete nucleoprotein filament assembly, the reaction buffer consisted of 50 mM TAE (tris, acetate, EDTA) pH 7.5, 2 mM ATP, 2 mM MgCl2, 2 mM DTT. In nucleoprotein formation stimulation assays or supershift experiments, BRCA2Ex14 or BRCA2Ex14-AAA were added for a further 30 min at 4 °C.” for “KCl.”

[3] = system: RAD51 L180E-ssDNA filaments; test: EMSA, BRC4-mediated disruption of RAD51 L180E-ssDNA filaments (random sequence ssDNA); format: biochemical; details: 100-nt random ssDNA
Method: as §3, with “KCl. For RAD51, reaction buffer is 50 mM TEA (triethanolamine), 2 mM ATP, 0.5 mM MgCl2, 2 mM DTT. For assays requiring incomplete nucleoprotein filament assembly, the reaction buffer consisted of 50 mM TAE (tris, acetate, EDTA) pH 7.5, 2 mM ATP, 2 mM MgCl2, 2 mM DTT. In nucleoprotein formation stimulation assays or supershift experiments, BRCA2Ex14 or BRCA2Ex14-AAA were added for a further 30 min at 4 °C.” for “KCl.”

DMC1;BRCA2 Ex14-Tr = molecular target: T3, DMC1;BRCA2 Ex14-Tr; test: EMSA; TAE + Ex14-Tr; mostly stimulated filament formation; DMC1: 25 mM TEA (triethanolamine) pH 7.5, 200 mM KCl, 1 mM ATP, 2 mM MgCl2, 0.1 mg/ml BSA, 2 mM DTT, or 50 mM TAE pH 7.5, 2 mM ATP, 2 mM MgCl2, 2 mM DTT; RAD51: 50 mM TEA, 2 mM ATP, 0.5 mM MgCl2, 2 mM DTT; all 4 C, agarose gel in 0.5x TAE; details: tags: His6 removed by TEV;; label: 5'-FAM; single strand
DMC1;BRCA2 Ex14 = molecular target: T4, DMC1;BRCA2 Ex14; test: EMSA, BRC4 protection; TEA + KCl; 110 µM Ex14, 10-fold excess BRC4, protected; DMC1: 25 mM TEA (triethanolamine) pH 7.5, 200 mM KCl, 1 mM ATP, 2 mM MgCl2, 0.1 mg/ml BSA, 2 mM DTT, or 50 mM TAE pH 7.5, 2 mM ATP, 2 mM MgCl2, 2 mM DTT; RAD51: 50 mM TEA, 2 mM ATP, 0.5 mM MgCl2, 2 mM DTT; all 4 C, agarose gel in 0.5x TAE; details: protein: recombinant;recombinant; tags: His6 removed by TEV;His6-MBP removed by TEV; label: 5'-FAM; single strand
RAD51;BRCA2 Ex27 = RAD51;BRCA2 Ex27 (Homo sapiens?;Homo sapiens?, UniProt Q06609;P51587 1-339;3270-3315, |); test: EMSA, BRC4 protection; 10-fold excess Ex27 + BRC4; protected, less complete than on poly(dT); DMC1: 25 mM TEA (triethanolamine) pH 7.5, 200 mM KCl, 1 mM ATP, 2 mM MgCl2, 0.1 mg/ml BSA, 2 mM DTT, or 50 mM TAE pH 7.5, 2 mM ATP, 2 mM MgCl2, 2 mM DTT; RAD51: 50 mM TEA, 2 mM ATP, 0.5 mM MgCl2, 2 mM DTT; all 4 C, agarose gel in 0.5x TAE; details: tags: ;; label: 5'-FAM; single strand
DMC1 = molecular target: T5, DMC1; test: EMSA; TEA + 200 mM KCl, 1 mM ATP, 2 mM Mg2+; largely complete at 3 nt per protomer (11 µM DMC1); DMC1: 25 mM TEA (triethanolamine) pH 7.5, 200 mM KCl, 1 mM ATP, 2 mM MgCl2, 0.1 mg/ml BSA, 2 mM DTT, or 50 mM TAE pH 7.5, 2 mM ATP, 2 mM MgCl2, 2 mM DTT; RAD51: 50 mM TEA, 2 mM ATP, 0.5 mM MgCl2, 2 mM DTT; all 4 C, agarose gel in 0.5x TAE; details: protein: recombinant; tags: His6 removed by TEV; chain copies: 8; label: 5'-FAM; single strand

Molecule	binding in pull-down (DMC1 ΔN)	binding in pull-down (DMC1 ΔN loop mutant)	binding in pull-down (DMC1 ΔN V179E)	binding in pull-down (DMC1 ΔN F85E)	disruption of DMC1-ssDNA filaments (DMC1-ssDNA filaments)	disruption of RAD51-ssDNA filaments (RAD51-ssDNA filaments [1])	protection of RAD51-ssDNA filaments from BRC4-mediated disruption (RAD51-ssDNA filaments [2])	disruption of RAD51 L180E-ssDNA filaments [3]	binding result (DMC1;BRCA2 Ex14-Tr)	binding result (DMC1;BRCA2 Ex14)	binding result (RAD51;BRCA2 Ex27)	binding result (DMC1)
BRC4: BRCA2 BRC repeat 4 peptide, amino acids 1519-1551 (PTLLGFHTASGKKVKIAKESLDKVKNLFDEKEQ; not fully specified; left off: His6, end not stated, state not stated | MBP, end not stated, kept) [reference compound]	bind	retained its interaction	retained binding	retained binding	completely disrupted	disrupted	partially disrupt filaments	underwent similar disruption				
B1									binds	binds	binds	binds
